Test results published in a protein production outcome set (Wang et al. 2014).

Test: label from the status in PepcDB records

| Sequence | protein production |
| --- | --- |
| MDINMKKHKTIQFIVAALFIASACTDDRDNLMVNDQIGLLHSTYTETEIFRGMDTPYQLFVIKSGKGKQETEVSISVDETVLQSYNTDNGTSIQLLPSDCYTILQPALRLNDSDYRKAFDIKWNADRLSDLLSTGKEYGLPIQMSVVQNFISADDERLKTIIVPTIKEPYLQMDVPGMSPVTDFMPTFGDLNERELFVKIRTNYSNDEDISFQIEVDPQLVIDYNTAHGTAYKMLPESSFTVDNKGVILTGMKETFIKIKYHKKGLIPEEGTYLFGDYVLPLRITSVSKYGISPDAASKLYTVKFQPDPIDKKGWSVIDFNNCCTQDGGWYLNMGWGVESLIDNNPGTQWLCRWDVKEPLPYYFVFDMGKEYTLFRFGFANPVAPAAHVWAGTSKAGYVEASIDNENWVKLKDWTSPKIGEPNVNMDVPATQARYIRFVITDTYPTYDGLRVSLGEVYAWGM | failed |
| MSEKMVAIMKTKPGYGAELVEVDVPKPGPGEVLIKVLATSICGTDLHIYEWNEWAQSRIKPPQIMGHEVAGEVVEIGPGVEGIEVGDYVSVETHIVCGKCYACRRGQYHVCQNTKIFGVDTDGVFAEYAVVPAQNIWKNPKSIPPEYATLQEPLGNAVDTVLAGPISGKSVLITGAGPLGLLGIAVAKASGAYPVIVSEPSDFRRELAKKVGADYVINPFEEDVVKEVMDITDGNGVDVFLEFSGAPKALEQGLQAVTPAGRVSLLGLYPGKVTIDFNNLIIFKALTIYGITGRHLWETWYTVSRLLQSGKLNLDPIITHKYKGFDKYEEAFELMRAGKTGKVVFMLK | not failed |
| MQQPTASVVSYVAEYHKATETTMGRYKKVIEITGHDEVAAKLLEGLIDAGTRYFSKVVEMEHRMASARFRLDGEELRELTETLDRSRRLAHESLISSLHVFNRYIVKEYGEELKEAGIEGGIFPKPEANRDRIAIADWAGELLTGIYENRHR | not failed |
| MSSEKVMSESSNASTKEGQLPRSSGVSWSLIMGAAFLMATSAVGPGFLTQTTVFTQTLGASFAFVILVSIILDIGAQLNIWRVIVVSKKRAQDIANDLLPGLGYAIAGTVALGGLAFNIGNIGGAGMGMNVLFPSISPVAGASISAVIAVAIFMLKDAAKVMDRFTILMGAALIVMTLYVLFSTSPPIGEALYRSVWPEKLNVLAIITLVGGTVGGYITFAGAHRLIDAGVTGKEALPQVNRGSVSAISVASIVRVILFLAALGVISTGVTLDPSNPPASMFQHAAGNIGYKIFGLVLWAAAITSVIGAAYTSVSFLKTLHPMIDLHSRKFIIGFIVISTFIFCFIGKPVVLLIVAGALNGFILPVTLGIMLIAAKKAQIVGDYKHPVWMSVFGWLITAMMAAMSVYTLYMLLI | failed |
| MSLTAQIRLAEPADLNDDTLRARAVAAARGDQRFDVLITGGTLVDVVTGELRPADIGIVGALIASVHEPASRRDAAQVIDAGGAYVSPGLIDTHMHIESSMITPAAYAAAVVARGVTTIVWDPHEFGNVHGVDGVRWAAKAIENLPLRAILLAPSCVPSAPGLERGGADFDAAILADLLSWPEIGGIAEIMNMRGVIERDPRMSGIVQAGLAAEKLVCGHARGLKNADLNAFMAAGVSSDHELVSGEDLMAKLRAGLTIELRGSHDHLLPEFVAALNTLGHLPQTVTLCTDDVFPDDLLQGGGLDDVVRRLVRYGLKPEWALRAATLNAAQRLGRSDLGLIAAGRRADIVVFEDLNGFSARHVLASGRAVAEGGRMLVDIPTCDTTVLKGSMKLPLRMANDFLVKSQGAKVRLATIDRPRFTQWGETEADVKDGFVVPPEGATMISVTHRHGMAEPTTKTGFLTGWGRWNGAFATTVSHDSHNLTVFGGNAGDMALAANAVIGTGGGMAVASEGKVTAILPLPLSGLVSDAPLEEVARAFEDLREAVGKVVEWQPPYLVFKACFGATLACNIGPHQTDMGIADVLTGKVMESPVIEVLGEGHHHHHH | not failed |
| YISAVQAGDTESFAPLVERYSDMLYALLCRLLQDEEDAADLLQDTFVKAFRHIGRFDGRSSFSTWIYRIAYNEAIDHLRRRKAYVTDRVEELPDVPDEDLEPSGEDPELLQQALDSLPAADKALLLMFYSDDLSVRDIAEVTGMSESNVKVKLHRLRTKLYKMMR | failed |
| MMVAVFWISFLLLAYIYFGYPVCIRLLASARPLPVNKSGAYQPKVSILIAAYNEAKDIEATLRNKLALDYPREQLEILVVSDESEDGTDEIVQAVAADAPFPVKLFRQVPRQGKTAGLNMLKQHAEGEILAFSDANSEWDQQALKALVSNFNDPAVGYVTGKMVYVNPEGALIGDGCSAYMKYENWLRAQETLVGSVVGVDGGIDAMRKELHSELNADQLPDFVQPLKVVEQGYRVVYEPGALLKEEALSDGGSEFSMRVRVSLRALWALKDMKQLMSPANDPVFAWQLISHKLLRYAAFAPMITLAIAALYLAPVKGLYALAAIGYGLFLYFAWAGYQKESRGQSLSTMYALPYYFVLLNLASFKAFVAFAKGEKKVVWNPRKG | failed |
| MGHETKAQLKDYVEVKIMKIKTTVAALSVLSVLSFGAFAADSIDAAQAQNREAIGTVSVSGVASSPMDIREMLNKKAEEKGATAYQITEARSGDTWHATAELYKLEHHHHHH | not failed |
| MGTTQLESVPEPKYWHLKTVLSEALDSEFSVGEILPNERDLAARFGVARATLRQALEQLELEGRLQRRRGVGTTVAPPRMGVAVGSEQHTWPGAAGDAWQPVDCTVAAPPPAVAGVLETGRNEQVHTVRRSRVTHGHPVAAELLYIPDFSVPDLSAIDAPSGAARARAVLRELQRLELEGQDRAVELGSARAEDAKELDRLPGAPVLVVTTRFFAEGRAAAVSVATYRADTCRLTFGDSGGVEIHHDPERRAS | failed |
| MAESTQMEVETATEGTVPLPPKPTFKPLKAHEMSDGKVQFRKIAVPPNRYSPLKKAWLDIYTPIYDQMKVDIRMNLKARKVELKTRADTPDISNLQKSADFVHAFMLGFDIPDAISLLRMDELYVESFEIKDVKTLKGEHLSRAIGRLSGKGGKTKFAIENSTKTRIVIADTRIHILGAFSNIKVARSSLCSLIMGSPAGKVYSKLRSVSARLNE | failed |
| MSLDRPRCCLRGKECSINRFQQVESRWGYSGTSDRIRFSVNKRIFVVGFGLYGSIHGPTDYQVNIQIIHTDSNTVLGQNDTGFSCDGSASTFRVMFKEPVEVLPNVNYTACATLKGPDSHYGTKGMRKVTHESPTTGAKTCFTFCYAAGNNNGTSVEDGQIPEVIFYTEGHHHHHH | not failed |
| MLIAVPLDDTNFSENLKKAKEKGADIVELRVDQFSDTSLNYVKEKLEEVHSQGLKTILTIRSPEEGGREVKNREELFEELSPLSDYTDIELSSRGLLVKLYNITKEAGKKLIISYHNFELTPPNWIIREVLREGYRYGGIPKIAVKANSYEDVARLLCISRQVEGEKILISMGDYGKISRLAGYVFGSVITYCSLEKAFAPGQIPLEEMVELRKKFYRL | not failed |
| MTSDQPIRWGIIGPGTIARTFADGVAHSRTGKLVAIATRNPSKPGLAENFPGARIVNGYEALLSDPEVDAVYISVPHTGHAEWAIKAARAGKHILVEKPIALSAYDAEAVYYEAKKAGVFAGEAFMYRVHPQTEKLVELIKSGVIGTLRIIRSSFGFNMGSYRPEHRLFANDTAGGGILDVGGYPVSMARLIAGAAEGKAFLDPEKVSGVAHLGESGVDEWASAVLKFPNEIIAEVSCSIMAQQDNVLRIIGSEGRIEVADFWFASGHKGGVGKIEIFKGGKQETIEVKEERWLYSFEADAAGDAIRAGRTEFSAPGMGWTDSIANLRVLDQWRASVGLEYGVEKAAKRTNNIAGGAVTRGNSIRQRQIPGISKPASVVTLGFEFFPNFAAASLTLDAFYEAGGNAFDTAYVYGAGKTEAIFGDWHTSRNVPREEIVLIGKGAHSPLCYPDMIAKQLDQSLARLKTDYVDIYFMHRDNTDVPVGEFVDAMDAEVKRGRIRGIFGGSNWTRARFDEAIAYAEKNGKTAPAALSNNFSLAEMLDPIWAGCVAASDDDWKKWLNEKQIPNFAWSSQGRGFFTDRAGRDKRDDEEIVRVWYSERNFGRRDRAIELANKLGRNPIHIALAYVIAQPFPVIPLIGPRTVAELEDSLSALDIRLTPDEVKWLEG | failed |
| MKMRKLVKDFGDDYTLIQDSQEVKAILEYIGSEEEPHALFVKVGDGDYEEVWGIDSFVPYNFLEAYRLK | not failed |
| MTEPPPTPDRHPDAVESAAPGGYLEPVRAAGTVLWRDTGRGREIALVHRPRYNDWTLPKGKLDEGEHVLVAAVRETVEETGVTPRLGRRLATQRYWKSGWPKQVDWWAATPAPGTTAQFTPTAEVDAVEWLPAAEARARLTYPSDVRVLDDFLHGPAQTVPLVLLRHASAGNKNEWHDYDLLRPLDEAGRAHARAVADILAVFGPLRVVSSTAARCLETVVPYAAAHGVEIRTEHTFTVGVLRSGAQAYDPQAARQTMRALVEERQPTLVCTHGELVADLMAEAAAQTGAPARSRWALRKGAFWVVHRDAKDGSLVAVEHHGLPG | failed |
